One block for each binder: values may come before it. Starred links: 1 amine or outer side, 2 acyl side, 3 side chain; linkers in the order of their positions; H or OH if unused. Positions of bridges follow the written chain, without caps; N, C: chain ends. Groups on a side chain read outwards from the residue. No end group written: not given here. *: point of attachment. C20 diacid = O=C(O)CCCCCCCCCCCCCCCCCCC(=O)*; C18 diacid = O=C(O)CCCCCCCCCCCCCCCCC(=O)*; γGlu = O=C(O)[C@H](CCC(=O)[*:2])N[*:1]; AEEA = NCCOCCOCC(=O)O
Key:
[1] = target: T1, human calcitonin (a) receptor (human, UniProt P30988 25-474); test: cell-based or functional assay
T1 sequence (looked up): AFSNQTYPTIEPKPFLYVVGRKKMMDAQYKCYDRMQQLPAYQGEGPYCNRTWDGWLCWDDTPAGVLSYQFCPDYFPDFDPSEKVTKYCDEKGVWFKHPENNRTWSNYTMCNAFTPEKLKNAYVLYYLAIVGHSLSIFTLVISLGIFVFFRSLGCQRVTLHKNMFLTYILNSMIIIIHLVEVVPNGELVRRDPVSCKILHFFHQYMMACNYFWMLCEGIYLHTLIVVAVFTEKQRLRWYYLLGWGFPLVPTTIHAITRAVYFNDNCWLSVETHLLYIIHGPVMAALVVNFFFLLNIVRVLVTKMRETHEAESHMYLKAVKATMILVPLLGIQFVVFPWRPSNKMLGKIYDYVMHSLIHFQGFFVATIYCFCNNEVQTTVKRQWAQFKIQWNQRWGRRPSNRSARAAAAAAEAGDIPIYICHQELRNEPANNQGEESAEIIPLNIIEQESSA

[2] = target: T2, human amylin 3(a) receptor (human calcitonin receptor + RAMP-3) (human, UniProt P30988 25-474; O60896 24-148); test: cell-based or functional assay
T2 sequence (looked up) 1: T1 sequence (looked up)
T2 sequence (looked up) 2: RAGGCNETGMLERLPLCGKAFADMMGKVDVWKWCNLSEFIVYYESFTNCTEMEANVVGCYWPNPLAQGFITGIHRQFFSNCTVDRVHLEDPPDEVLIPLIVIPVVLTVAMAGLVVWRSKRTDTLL

CTa receptor human EC50 [1]: 0.0525 nM
Amylin receptor human EC50 [2]: 0.055 nM
B1: N-alpha-[(S)-4-Carboxy-4-(19-carboxynonadecanoylamino)butyryl]-[Glu14,Pro37]-pramlintide (peptide)
peptide: {C20 diacid-γGlu}-KCNTATCATQRLAEFLVHSSNNFGPILPPTNVGSNTP-NH2
modifications: disulfide 2-7
SMILES: CC[C@H](C)[C@H](NC(=O)[C@@H]1CCCN1C(=O)CNC(=O)[C@H](Cc1ccccc1)NC(=O)[C@H](CC(N)=O)NC(=O)[C@H](CC(N)=O)NC(=O)[C@H](CO)NC(=O)[C@H](CO)NC(=O)[C@H](Cc1c[nH]cn1)NC(=O)[C@@H](NC(=O)[C@H](CC(C)C)NC(=O)[C@H](Cc1ccccc1)NC(=O)[C@H](CCC(=O)O)NC(=O)[C@H](C)NC(=O)[C@H](CC(C)C)NC(=O)[C@H](CCCNC(=N)N)NC(=O)[C@H](CCC(N)=O)NC(=O)[C@@H](NC(=O)[C@H](C)NC(=O)[C@@H]1CSSC[C@H](NC(=O)[C@H](CCCCN)NC(=O)CC[C@H](NC(=O)CCCCCCCCCCCCCCCCCCC(=O)O)C(=O)O)C(=O)N[C@@H](CC(N)=O)C(=O)N[C@@H]([C@@H](C)O)C(=O)N[C@@H](C)C(=O)N[C@@H]([C@@H](C)O)C(=O)N1)[C@@H](C)O)C(C)C)C(=O)N[C@@H](CC(C)C)C(=O)N1CCC[C@H]1C(=O)N1CCC[C@H]1C(=O)N[C@H](C(=O)N[C@@H](CC(N)=O)C(=O)N[C@H](C(=O)NCC(=O)N[C@@H](CO)C(=O)N[C@@H](CC(N)=O)C(=O)N[C@H](C(=O)N1CCC[C@H]1C(N)=O)[C@@H](C)O)C(C)C)[C@@H](C)O

CTa receptor human EC50 [1]: 8.43 nM
Amylin receptor human EC50 [2]: 1.75 nM
B2: N-epsilon17-[2-(2-{2-[2-(2-{2-[(S)-4-Carboxy-4-(17-carboxyheptadecanoylamino)butyrylamino]ethoxy}ethoxy)acetylamino]ethoxy}ethoxy)acetyl]-[Glu14,Lys17,Ser21,Glu … (peptide)
peptide: KCNTATCATQRLAEFLK([AEEA-AEEA-γGlu-C18 diacid])HSSSNFGPILPPTNVGSETY-NH2
modifications: disulfide 2-7; N-terminus assumed
SMILES: CC[C@H](C)[C@H](NC(=O)[C@@H]1CCCN1C(=O)CNC(=O)[C@H](Cc1ccccc1)NC(=O)[C@H](CC(N)=O)NC(=O)[C@H](CO)NC(=O)[C@H](CO)NC(=O)[C@H](CO)NC(=O)[C@H](Cc1c[nH]cn1)NC(=O)[C@H](CCCCNC(=O)COCCOCCNC(=O)COCCOCCNC(=O)CC[C@H](NC(=O)CCCCCCCCCCCCCCCCC(=O)O)C(=O)O)NC(=O)[C@H](CC(C)C)NC(=O)[C@H](Cc1ccccc1)NC(=O)[C@H](CCC(=O)O)NC(=O)[C@H](C)NC(=O)[C@H](CC(C)C)NC(=O)[C@H](CCCNC(=N)N)NC(=O)[C@H](CCC(N)=O)NC(=O)[C@@H](NC(=O)[C@H](C)NC(=O)[C@@H]1CSSC[C@H](NC(=O)[C@@H](N)CCCCN)C(=O)N[C@@H](CC(N)=O)C(=O)N[C@@H]([C@@H](C)O)C(=O)N[C@@H](C)C(=O)N[C@@H]([C@@H](C)O)C(=O)N1)[C@@H](C)O)C(=O)N[C@@H](CC(C)C)C(=O)N1CCC[C@H]1C(=O)N1CCC[C@H]1C(=O)N[C@H](C(=O)N[C@@H](CC(N)=O)C(=O)N[C@H](C(=O)NCC(=O)N[C@@H](CO)C(=O)N[C@@H](CCC(=O)O)C(=O)N[C@H](C(=O)N[C@@H](Cc1ccc(O)cc1)C(N)=O)[C@@H](C)O)C(C)C)[C@@H](C)O

CTa receptor human EC50 [1]: 0.153 nM
Amylin receptor human EC50 [2]: 0.133 nM
B3: N-alpha-[(S)-4-Carboxy-4-(19-carboxynonadecanoylamino)butyryl]-Ser-[Glu14,His17,His35]-pramlintide (peptide)
peptide: {C20 diacid-γGlu}-SKCNTATCATQRLAEFLHHSSNNFGPILPPTNVGSHTY-NH2
modifications: disulfide 3-8
SMILES: CC[C@H](C)[C@H](NC(=O)[C@@H]1CCCN1C(=O)CNC(=O)[C@H](Cc1ccccc1)NC(=O)[C@H](CC(N)=O)NC(=O)[C@H](CC(N)=O)NC(=O)[C@H](CO)NC(=O)[C@H](CO)NC(=O)[C@H](Cc1c[nH]cn1)NC(=O)[C@H](Cc1c[nH]cn1)NC(=O)[C@H](CC(C)C)NC(=O)[C@H](Cc1ccccc1)NC(=O)[C@H](CCC(=O)O)NC(=O)[C@H](C)NC(=O)[C@H](CC(C)C)NC(=O)[C@H](CCCNC(=N)N)NC(=O)[C@H](CCC(N)=O)NC(=O)[C@@H](NC(=O)[C@H](C)NC(=O)[C@@H]1CSSC[C@H](NC(=O)[C@H](CCCCN)NC(=O)[C@H](CO)NC(=O)CC[C@H](NC(=O)CCCCCCCCCCCCCCCCCCC(=O)O)C(=O)O)C(=O)N[C@@H](CC(N)=O)C(=O)N[C@@H]([C@@H](C)O)C(=O)N[C@@H](C)C(=O)N[C@@H]([C@@H](C)O)C(=O)N1)[C@@H](C)O)C(=O)N[C@@H](CC(C)C)C(=O)N1CCC[C@H]1C(=O)N1CCC[C@H]1C(=O)N[C@H](C(=O)N[C@@H](CC(N)=O)C(=O)N[C@H](C(=O)NCC(=O)N[C@@H](CO)C(=O)N[C@@H](Cc1c[nH]cn1)C(=O)N[C@H](C(=O)N[C@@H](Cc1ccc(O)cc1)C(N)=O)[C@@H](C)O)C(C)C)[C@@H](C)O

CTa receptor human EC50 [1]: 0.0705 nM
Amylin receptor human EC50 [2]: 0.0955 nM
B4: N-alpha-[(S)-4-Carboxy-4-(19-carboxynonadecanoylamino)butyryl]-Gly-[Glu14,His17,His35]-pramlintide (peptide)
peptide: {C20 diacid-γGlu}-GKCNTATCATQRLAEFLHHSSNNFGPILPPTNVGSHTY-NH2
modifications: disulfide 3-8
SMILES: CC[C@H](C)[C@H](NC(=O)[C@@H]1CCCN1C(=O)CNC(=O)[C@H](Cc1ccccc1)NC(=O)[C@H](CC(N)=O)NC(=O)[C@H](CC(N)=O)NC(=O)[C@H](CO)NC(=O)[C@H](CO)NC(=O)[C@H](Cc1c[nH]cn1)NC(=O)[C@H](Cc1c[nH]cn1)NC(=O)[C@H](CC(C)C)NC(=O)[C@H](Cc1ccccc1)NC(=O)[C@H](CCC(=O)O)NC(=O)[C@H](C)NC(=O)[C@H](CC(C)C)NC(=O)[C@H](CCCNC(=N)N)NC(=O)[C@H](CCC(N)=O)NC(=O)[C@@H](NC(=O)[C@H](C)NC(=O)[C@@H]1CSSC[C@H](NC(=O)[C@H](CCCCN)NC(=O)CNC(=O)CC[C@H](NC(=O)CCCCCCCCCCCCCCCCCCC(=O)O)C(=O)O)C(=O)N[C@@H](CC(N)=O)C(=O)N[C@@H]([C@@H](C)O)C(=O)N[C@@H](C)C(=O)N[C@@H]([C@@H](C)O)C(=O)N1)[C@@H](C)O)C(=O)N[C@@H](CC(C)C)C(=O)N1CCC[C@H]1C(=O)N1CCC[C@H]1C(=O)N[C@H](C(=O)N[C@@H](CC(N)=O)C(=O)N[C@H](C(=O)NCC(=O)N[C@@H](CO)C(=O)N[C@@H](Cc1c[nH]cn1)C(=O)N[C@H](C(=O)N[C@@H](Cc1ccc(O)cc1)C(N)=O)[C@@H](C)O)C(C)C)[C@@H](C)O

CTa receptor human EC50 [1]: 4.3 nM
Amylin receptor human EC50 [2]: 0.456 nM
B5: N-epsilon17-[2-(2-{2-[2-(2-{2-[(S)-4-Carboxy-4-(17-carboxyheptadecanoylamino)butyrylamino]ethoxy}ethoxy)acetylamino]ethoxy}ethoxy)acetyl]-[Glu14,Lys17]-pramlint … (peptide)
peptide: KCNTATCATQRLAEFLK([AEEA-AEEA-γGlu-C18 diacid])HSSNNFGPILPPTNVGSNTY-NH2
modifications: disulfide 2-7; N-terminus assumed
SMILES: CC[C@H](C)[C@H](NC(=O)[C@@H]1CCCN1C(=O)CNC(=O)[C@H](Cc1ccccc1)NC(=O)[C@H](CC(N)=O)NC(=O)[C@H](CC(N)=O)NC(=O)[C@H](CO)NC(=O)[C@H](CO)NC(=O)[C@H](Cc1c[nH]cn1)NC(=O)[C@H](CCCCNC(=O)COCCOCCNC(=O)COCCOCCNC(=O)CC[C@H](NC(=O)CCCCCCCCCCCCCCCCC(=O)O)C(=O)O)NC(=O)[C@H](CC(C)C)NC(=O)[C@H](Cc1ccccc1)NC(=O)[C@H](CCC(=O)O)NC(=O)[C@H](C)NC(=O)[C@H](CC(C)C)NC(=O)[C@H](CCCNC(=N)N)NC(=O)[C@H](CCC(N)=O)NC(=O)[C@@H](NC(=O)[C@H](C)NC(=O)[C@@H]1CSSC[C@H](NC(=O)[C@@H](N)CCCCN)C(=O)N[C@@H](CC(N)=O)C(=O)N[C@@H]([C@@H](C)O)C(=O)N[C@@H](C)C(=O)N[C@@H]([C@@H](C)O)C(=O)N1)[C@@H](C)O)C(=O)N[C@@H](CC(C)C)C(=O)N1CCC[C@H]1C(=O)N1CCC[C@H]1C(=O)N[C@H](C(=O)N[C@@H](CC(N)=O)C(=O)N[C@H](C(=O)NCC(=O)N[C@@H](CO)C(=O)N[C@@H](CC(N)=O)C(=O)N[C@H](C(=O)N[C@@H](Cc1ccc(O)cc1)C(N)=O)[C@@H](C)O)C(C)C)[C@@H](C)O

CTa receptor human EC50 [1]: 0.288 nM
Amylin receptor human EC50 [2]: 0.108 nM
B6: N-alpha-[2-(2-{2-[2-(2-{2-[(S)-4-Carboxy-4-(17-carboxyheptadecanoylamino)butyrylamino]ethoxy}ethoxy)acetylamino]ethoxy}ethoxy)acetyl]-[Glu1,Glu14,His17,Pro37]-p … (peptide)
peptide: {C18 diacid-γGlu-AEEA-AEEA}-ECNTATCATQRLAEFLHHSSNNFGPILPPTNVGSNTP-NH2
modifications: disulfide 2-7
SMILES: CC[C@H](C)[C@H](NC(=O)[C@@H]1CCCN1C(=O)CNC(=O)[C@H](Cc1ccccc1)NC(=O)[C@H](CC(N)=O)NC(=O)[C@H](CC(N)=O)NC(=O)[C@H](CO)NC(=O)[C@H](CO)NC(=O)[C@H](Cc1c[nH]cn1)NC(=O)[C@H](Cc1c[nH]cn1)NC(=O)[C@H](CC(C)C)NC(=O)[C@H](Cc1ccccc1)NC(=O)[C@H](CCC(=O)O)NC(=O)[C@H](C)NC(=O)[C@H](CC(C)C)NC(=O)[C@H](CCCNC(=N)N)NC(=O)[C@H](CCC(N)=O)NC(=O)[C@@H](NC(=O)[C@H](C)NC(=O)[C@@H]1CSSC[C@H](NC(=O)[C@H](CCC(=O)O)NC(=O)COCCOCCNC(=O)COCCOCCNC(=O)CC[C@H](NC(=O)CCCCCCCCCCCCCCCCC(=O)O)C(=O)O)C(=O)N[C@@H](CC(N)=O)C(=O)N[C@@H]([C@@H](C)O)C(=O)N[C@@H](C)C(=O)N[C@@H]([C@@H](C)O)C(=O)N1)[C@@H](C)O)C(=O)N[C@@H](CC(C)C)C(=O)N1CCC[C@H]1C(=O)N1CCC[C@H]1C(=O)N[C@H](C(=O)N[C@@H](CC(N)=O)C(=O)N[C@H](C(=O)NCC(=O)N[C@@H](CO)C(=O)N[C@@H](CC(N)=O)C(=O)N[C@H](C(=O)N1CCC[C@H]1C(N)=O)[C@@H](C)O)C(C)C)[C@@H](C)O

— US20130005646A1 (Novo Nordisk, published 2013)
